In patent US20090041784A1 (Amgen, published 2009):
Changes are numbered by the printed parent chain. Read-outs that look alike come from different tables or passages of the source.

T1: cynomolgus glucagon receptor (cynomolgus (Macaca fascicularis), UniProt P47871 26-477 (human entry))
T1 chain: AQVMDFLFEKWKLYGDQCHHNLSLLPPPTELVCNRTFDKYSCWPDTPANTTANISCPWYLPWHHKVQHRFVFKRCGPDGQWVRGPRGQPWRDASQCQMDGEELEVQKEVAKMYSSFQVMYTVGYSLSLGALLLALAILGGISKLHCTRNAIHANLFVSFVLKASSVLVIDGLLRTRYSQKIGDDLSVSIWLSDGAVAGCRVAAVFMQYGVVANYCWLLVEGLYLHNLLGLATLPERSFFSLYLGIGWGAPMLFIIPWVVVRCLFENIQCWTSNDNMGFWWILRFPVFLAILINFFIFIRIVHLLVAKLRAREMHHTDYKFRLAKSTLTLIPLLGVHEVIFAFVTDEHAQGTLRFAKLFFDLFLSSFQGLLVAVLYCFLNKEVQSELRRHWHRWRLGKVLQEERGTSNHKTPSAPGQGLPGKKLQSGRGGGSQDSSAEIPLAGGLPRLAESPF

B1: antibody A-21 (antibody, V domains shown)
VH: EVRLVESGGDLVQPGGSLRLSCAASGFTFSSYAMNWVRQAPGKGLEWISYIGSSSSAIYYGDSVKGRFTISRDNAKNSLYLQMNSLRDEDTAVYYCARYRSGWSPLFDFWGQGSLVTVSS
VL: DIQMTQSPSSVSASVGDRVTITCRASQGISSWLAWYQQKPGKAPKLLIYAASSLQSGVPSRFSGSGSGTDFTLTISSLQPEDFATYYCQQANSFPLTFGGGTKVEIK
notes: Human antibody from XenoMouse hybridoma; also called L21H21
B2: antibody A-18 (antibody, V domains shown)
VH: QVQLVESGGGVVQPGRSLRLSCAASGFTFSRYGMHWVRQAPGKGLEWVAVIWYDGSHKYYEDSVKGRFTISRDNSKNTLYLQMNSLRADDTGVYYCARVGYGSGWYEYYYHYGMDVWGQGTTVTVSS
VL: NIVMTQTPLSLSVTPGQPASISCKSSQSLLHSDGKNYLFWYLQKPGQSPQLLIYEVSYRFSGVPDRFSGSGSGTDFSLKISRVEAEDVGVYYCMQNIQPPLTFGQGTRLEIK
notes: Human antibody from XenoMouse hybridoma (IgG2 or IgG4 strains), purified from conditioned medium; also called L18H18
B3: antibody A-3 (antibody, V domains shown)
VH: QVQLVESGGGVVQPGRSLRLSCAASGFTFSSYGMHWVRQAPGKGLEWVAVMWYDGSNKDYVDSVKGRFTISRDNSKNTLYLQMNRLRAEDTAVYYCAREKDHYDILTGYNYYYGLDVWGQGTTVTVSS
VL: DIQMTQSPSSLSASVGDRVTITCRASQGIRNDLGWYQQKPGKAPKRLIYAASSLQSGVPSRFSGSGSGTEFTLTISSVQPEDFVTYYCLQHNSNPLTFGGGTKVEIK
notes: Human antibody from XenoMouse hybridoma; also called L3H3; antibody 3
B4: antibody A-4 (antibody, V domains shown)
VH: B3 VH with R85S
VL: B3 VL with V78L, V84A
notes: Human antibody from XenoMouse hybridoma (IgG2 or IgG4 strains), purified from conditioned medium; also called L4H4; antibody 4

How the values were obtained:
[1] = molecular target: T2, chimera-8 (amino acids 80-477 from human GCGR, remainder from human GLP-1 receptor) (human, UniProt P43220 24-83); assay: FMAT on cells expressing the chimeric receptor
T2 construct: Expressed on cells; not shown: in-frame C-terminal fluorescent protein, not identified

[2] = molecular target: T3, chimera-10 (amino acids 80-142 from human GCGR, remainder from human GLP-1 receptor) (human, UniProt P43220 24-83; P43220 146-463); assay: FMAT on cells expressing the chimeric receptor
T3 construct: Expressed on cells; not shown: in-frame C-terminal fluorescent protein, not identified

[3] = molecular target: T4, chimera-15 (amino acids 80-119 from human GCGR, remainder from human GLP-1 receptor) (human, UniProt P43220 24-83; P43220 125-463); assay: FMAT on cells expressing the chimeric receptor
T4 construct: Expressed on cells; not shown: in-frame C-terminal fluorescent protein, not identified

human glucagon receptor [4] = molecular target: T5, human glucagon receptor (human, UniProt P47871 26-477); assay: cell-based or functional assay
rat glucagon receptor [5] = molecular target: T6, rat glucagon receptor (rat (Rattus norvegicus), UniProt P30082 27-485); assay: cell-based or functional assay
mouse glucagon receptor [6] = molecular target: T7, mouse glucagon receptor (mouse (Mus musculus), UniProt Q61606 27-485); assay: cell-based or functional assay
human glucagon receptor [7] = molecular target: T5, human glucagon receptor; assay: cell-based or functional assay; remark: listed apart in the source
[8] = molecular target: T1, cynomolgus glucagon receptor; assay: cell-based or functional assay
rat glucagon receptor [9] = molecular target: T6, rat glucagon receptor; assay: Schild analysis of glucagon dose-response curves (cAMP HTRF) on CHO K1 cells expressing the receptor
mouse glucagon receptor [10] = molecular target: T7, mouse glucagon receptor; assay: as above
human glucagon receptor [11] = molecular target: T5, human glucagon receptor; assay: as above
[12] = molecular target: T1, cynomolgus glucagon receptor; assay: as above

Row | Binder | binding result [1] | binding result [2] | binding result [3] | IC50 of inhibition of glucagon-induced cAMP production (HTRF, CHO K1 cells expressing the receptor) (human glucagon receptor [4]) [nM] | IC50 of inhibition of glucagon-induced cAMP production (HTRF, CHO K1 cells expressing the receptor) (rat glucagon receptor [5]) [nM] | IC50 of inhibition of glucagon-induced cAMP production (HTRF, CHO K1 cells expressing the receptor) (mouse glucagon receptor [6]) [nM] | IC50 of inhibition of glucagon-induced cAMP production (HTRF, CHO K1 cells expressing the receptor) (human glucagon receptor [7]) [nM] | IC50 of inhibition of glucagon-induced cAMP production (HTRF, CHO K1 cells expressing the receptor) [8] [nM] | Kb (dissociation constant of antibody binding by Schild analysis) (rat glucagon receptor [9]) [nM] | Kb (dissociation constant of antibody binding by Schild analysis) (mouse glucagon receptor [10]) [nM] | Kb (dissociation constant of antibody binding by Schild analysis) (human glucagon receptor [11]) [nM] | Kb (dissociation constant of antibody binding by Schild analysis) [12] [nM]
1 | B1 | no binding | no binding | no binding | 47.2 | – | – | – | – | – | – | – | –
2 | B2 | no binding | no binding | no binding | 204 | – | – | – | – | – | – | – | –
3 | B3 | – | – | – | – | 13.5 | 4.9 | 9.1 | 22.5 | 3.2 | 0.5 | 1.6 | 5
4 | B4 | – | – | – | – | 17.2 | 10.1 | 18.1 | 52.1 | – | 0.88 | 1.76 | 5.7
